Measured values taken from the DeepSol protein solubility set.

assay: soluble on expression in E. coli; label from the status in PepcDB or PDB records

Q: With “AIAEGEYRLTRSYAVVDITAQVDDSAILEPFACVMARARIGPRTRVGAHSVVGVGVSVGADCCIYHHVTLLNCDIGDRCVIHSGVAIGQDGFGFEVDQQTGKVRKKPQELSVRIGNEVEIGANTCIDRGSWRDTLIEDAVKIDNLVQIGHNVQVGANTFICGQAGVAGSTKIGRYCRFGGRSGAVDHLEIGDHVDVAANSVLTRNAPGHAVYAGFPAMPMREWRHQQVTLRRLSRAGKRQVDVSADDPEFPK” as the sequence, how does the “soluble on expression in E. coli” value read?
A: soluble

Q: With “MKMWQRKTDSSGVIQMDLKKLEGIFEGMLFASGDKVSIEKLSSITGIDKKTVKLVINNMIVKYNNDPSRGITIREINNGYQLCSKPEYYDYIKQLFEPKQRSGLSQAALETLAIIAYNRPITKAKIEQIRGVNSDSAITKLLEKNLIREAGRLDAPGKPVLYETTDEFFRSFGFKSDADLPIFELNDIHETVEINQNSEQEKADTELEKQEKA” as the sequence, how does the “soluble on expression in E. coli” value read?
A: not soluble

Q: With “MRKIHFTDKYLLSPYHPVTVLVAGAGGTGSQVITSLARMSVALQALGHPGLHLTAFDPDTVTEANIGRQLFSETELGLNKATALVTRVNRFFGYAWEARECRYPIITKEGDKSVPLANIIITCTDNTRSRLDLWRFLKKYREYKKNDEKAPIYWMDFGNAQTTGQVLIGNIRSKISQPASSEYLPMPRMNVITEEVSYSTIREEDSGPSCSLAEALRKQDLFINSMLAQIGCDILWCMFREGRTFYRGAYLNLDTLRVNPIPV” as the sequence, how does the “soluble on expression in E. coli” value read?
A: not soluble

Q: With “MMTRLPLGATLPDFPWDSLADAKKTASSHPDGLINLSVGSPVDEVAPGIRLALAEAAAAPGYPQTIGTQELRAAIVDSLQRRYHATSLGGVLPVVGTKEAIALLPTLLGIRGTVVIPEVAYPTYEVGALMAGATPLRCDAPHELPNDDIDLVFINSPSNPTGRVASVEELRSIVAWAQANDVIVASDECYLGLAWDGEAVSILDPRVNDGNLSNLLAIHSLSKSSNLASYRAGFLAGDEALIAELTEIRKHSGLMVPGPIQAAMVEALRDDDQEALQKLRYARRRALLMRALIDAGFTVEHSEAGLYLWATRGENCRATVDWFASHGILVAPGDFYGPDAHNFVRVALTTTDDNAEKVAARLQKGN” as the sequence, how does the “soluble on expression in E. coli” value read?
A: soluble

Q: For “MSLAVLDSGGGSALLKMGRQCEVGSQAYDSSTVSSNLQKAETNGPVGLAGTAEQEQQYDVHGNVISAAVYQKFHVYGPEDMVFDGDAGGLTIPGAGAFWGTLFTSDLQRLYKDTVSFQYNALGTYLNINFFDSSGGFLGHIQAGAVSAVVGVGGGSGSWHNWEVAEGHHHHHH”, which “soluble on expression in E. coli” value is on record?
A: soluble

Q: Which “soluble on expression in E. coli” value does the source give for “GFFDLRNELPMNCRARRKVDLSDGALKDIARIDAIWSEQMAKFPDAFLFGEWSIADAMYAPVALRFETYGIELSQGAKAYQQKVLASHAVQKWLAEASQETDIVEEDEAGVEV” here?
A: not soluble

Q: For “MLISKHEERVKSILSARMENGNLRSRENTQVEFKQSFNKGNIAIYAKTMAAFSNNSGGYIIFGIKDSPRSIIGLQNSNFENIQQEDLTDSINNLFSPSINELGSFILKEKEINSNGDVIIVQKIIGIYTEESNIKPVIAQKNNSSEKIVNGDIFYRYRARTEKIKYAEMEQIINCRMKQERDSLFKVFEFIRNNGATNLGIVDYNNGKLSTPYGVDVVLEKNLIAKLLKKAKFIKEGSFSENEGIPVIKVTGNINLAEEVPVPLENLDETYPYIQKQLAEKLNITPQKLYALIYFKMKESKKYHLEITTSKTNKTHKFSKFALLFLKEKIIELDENKNELEHHHHHH”, which “soluble on expression in E. coli” value is on record?
A: not soluble

Q: For “MELRHIRYFLAVAEERHFTRAATKLGIGQPPLSQQIKDLERELGAQLFRRVPHGAELTEAGKAFYDVVKGMPATATRAVLAAQRVARGESGVLRVGFTASAAFNSVVPGAIRTFKRAYPDVRLQLEEGNTTQLADELNEGSLDVAFLRPGFTGNERFQLRLLSEEPMVIVLAETHPAAACKQIALSILKDEFFLLFPREIGLSLYDAVIKACGKAGFEPKIGQLVPQISSVINLVSAEMGVSMVPDSMRQVNVKGVVYRPVADQMPVAKLALAYRRGDTSPTLRNFILKVTG”, which “soluble on expression in E. coli” value is on record?
A: not soluble

Q: Which “soluble on expression in E. coli” value does the source give for “SNAMKKKDMNKQVKIQDAVAAIILAEGPAGVSTTKVAKRVGIAQSNVYLYFKNKQALIDSVYARETNRILSTTDLDRLSDSTIDVTTRIRLYVQQVYDYSLANPDSLTIIQQIKALNGQGMTISAADADPNNIVANLLTAAIDAKVIKQLPVSLHMGVVFSTIHTHTTNISKGRYAQDQYTFGDIFQMIWDAMKQD” here?
A: soluble

Q: For “MGQMADRLAALVVTAFSPDGQIEGSYGAAAGANIRFNGNSYRHYTERGLGHQLSRMAVLVWIAHQRGHDATVAEVTGQPVSRRQETWDARRRRFREEQAETESEGMSTGGLVYFRNTGMRDWHIVIRDGTLSKLDEPEFVKEFLSGYAALSLDYRHKMTKLRTKHYGPDIWMKK”, which “soluble on expression in E. coli” value is on record?
A: not soluble

Q: For “MQLHEQIANISVTFNDIPRSDHSMTPTELCYFDDFATTLVVDSVLNFTTHKMSKKRRYLYQDEYRTARTVMKTFREQRDWTNAIYGLLTLRSVSHFLSKLPPNKLFEFRDHIVRFLNMFILDSGYTIQECKRYSQEGHQGAKLVSTGVWSRGDKIERLSGVVCLLSSEDEDSILAQEGSDFSVMYSTRKRCSTLWLGPGAYINHDCRPTCEFVSHGSTAHIRVLRDMVPGDEITCFYGSEFFGPNNIDCECCTCEKNMNGAFSYLRGNENAEPIISEKKTKYELRSRS”, which “soluble on expression in E. coli” value is on record?
A: not soluble

Q: Which “soluble on expression in E. coli” value does the source give for “MISFNNVSKVYESGGQSVHAVEDVTLSVEKGEIFGIIGFSGAGKSTLLRLVNMLERPTAGTISIDDKDITSLSTKELRKLRQRIGMIFQSFNLFNSRTVFGNIAYPLKLAKVPKNEIKERVNELLKFVGLEDKANNYPEQLSGGQKQRVGIARALATSPDILICDEATSALDPETTTEILNLLKKVNREYNLTILLITHEMHVVKEICHRVAVMEKGKVIEEGKLFDVFTQPKTTTTQNFVRSVINDHLPESVLAKIQNGGQIYRLTFTGEETGQPVLSYIAKNYNVDVNVLYGNIIELQNVLFGNLLVELQGEQREIQKALQHLRLQVQLKEVEAHAS” here?
A: not soluble

Q: With “MGSDKIHHHHHHMNGTATGPRSSHFHWLLCALIVALPGCRDKPLREVIDRPVLFTEIADPQNASYGRFAGSIQPQHEVALGFRIAGRLATRHAEMGDRVRKGDLLATLDPSDQQNRLRARQAELSRARSAWQQLSDEQTRYQQLYTRGVGSRARLDQLNSDLRSQNALLDQASAAVQQAGDHLAYTRLTAEFDGLVTQWQTEVGQVMATGQAVVSLARPESREAVVDLPVGLLASLDDSRQIRVISQLDKQVSVIASVRQLAPQIDAGTRTQRVRLALQHIPDSLRLGSTVTVEISGNAPAFHELPASAVLARDGKDQVWVIDPSTSTLSPRAVQVLARKGGKVQVSGELHEGEKVVTAGVNGMQSGQKIRMQREVSL” as the sequence, how does the “soluble on expression in E. coli” value read?
A: not soluble

Q: For “MRRNRFLAPLLVAASLLATAPAHGQPAPAAVLASDEAQRIALDAYVYVYPLVVMDLSRRQDTGGKGPGHAPANTFAHERRLPQADFRRLPRPNFDMLRSSAWLDLSTGPVVISTPETHGRLYTLSVLDMWTDIFAVLGKRTTGTARGNHAIVPPGWTGVLPRGMHRIDAPTAQVQARLYVQTGGSSEYPGVHAVQDGFILTPLAEWNQQAQSVRLRSDPDLDALTPAQQQVEGMNAEDYFGYAAELLRKHAPHATDQPMLARLRRLGIAPGQQLAFARLPTTVQQALRHAVRNGPQALRDSLPATGSLANGWQADADGAGVYGNAYLRRAVTTQARLGASLPEDVTAMLLLADAAGRPLEGGQRYVLRFEADQLPPAGALWSLNAYDAQGYPVGNGFNRYALGDRDPVRYNPDGSLELYLQRDPPGPDDQANWLPTGEGAPGVILRIYLPQASVLAGRWVPPAARRVEAADDAAALEHHHHHH”, which “soluble on expression in E. coli” value is on record?
A: not soluble

Q: With “MGSDKIHHHHHHMEASFDIALASAYVNAHMYSQGLHVSRVAAKDSDFQGVSEKRYEIKDPKEMSRLIKKIGALFGSPLVRIVKLNPEWSYEHAPGDGRGYKYGEPVDIPEHWQYGIIMGIPLSWETREGAPSFFHTFEGYGNASMHCARMAEFVKKLGYPARENSPHARYEYIMPPHMVAAGIGEQGRLGVVVTPEFGPNFRPSMVVTNMPLEPDKPIDVGIRKFCMNCKICADQCPSGSISFDGPKEINGRGYDGWQINASTCHNFWMSVPNGGCRVCLAVCPFSKESNWLHTTARDIAVRERTGITASTLTWMEKAFYGVNTPEHYHYKEGTRQFDYLVGEKPWFFESKDFLKEN” as the sequence, how does the “soluble on expression in E. coli” value read?
A: not soluble

Q: With “MGSDKIHHHHHHMLYQLHEFNRSLLNPLMHWAEASSRLFTDPASPLAYTPYAQRIAAGYELLYRLGKQYEKPNFNIESVLVNGKTVAIVEEETEKKSFCTLIHFRKKLSAKEFAALKQPVVLLVAPLSGHHSTLLRDTVRSLLQDHDVYITDWTDARMVPLAEGPFHLHDYVYYIQDFIRRLGPDLHVISVCQPTVPVLAAISLMASERDPRLPKTMTMMGGPIDARKSPTQVNDLAVEKPHAWFENQVIYSVPPSYPGFGRKVYPGFLQHAGFIAMNPGRHAQSHWDFYMHLREGDNESAEEHRKFYDEYNAVLDMPAEYYLETIKTVFQEHRLPLGTWEIEGKLVRPQDIKSVALFTIEGEKDDISGAGQTHAAQDLCSALPQSDKQQFTAPQCGHYGIFSGRKWREIIAPKIGEFITRYS” as the sequence, how does the “soluble on expression in E. coli” value read?
A: not soluble

Q: For “GTDDEEKDNNGQGSVSVETNYLPIADPYVMFYNNKYYAYGTGGTTAGEGFACFSSDDLKNWKREGQALSATDSYGTWGFWAPEVYYVESKKKFYLFYSAEEHICVATSTTPEGPFRQEVKQPIWSEKSIDTSLFIDDDGTPYLYFVRFTDGNVIWVAQMTDDLMSIKTETLNQCIKAEVSWELLQGKVAEGPSLLKKNGVYYLIYSANHYENKGYGVGYATSDTPMGPWVKYSKNPLLQGDAATGLVGTGHGAPFQCKDGSWKYIFHAHWSAAEIQPRTSYIKDFAISDQGVVTISGTVIKPRVLK”, which “soluble on expression in E. coli” value is on record?
A: soluble

Q: Which “soluble on expression in E. coli” value does the source give for “DRICTNCCAGTKGCKYFSDDGTFVCEGESDPRNPKACTLNCDPRIAYGVCPRSEEKKNDRICTNCCAGTKGCKYFSDDGTFVCEGESDPRNPKACPRNCDPRIAYGICPLA” here?
A: soluble

Q: For “MNSRQQSILQMVVDKGQMSVAELAKITGVSEVTIRQDLNTLEKQSYLRRAHGFAVSLESDDVETRMMTNYTLKRRLAEFAASLVSPGESVFIENGSSNALLARTLAEQKDVTIITVSSYIAHLLKETPCEVILLGGIYQKKSESMVGPLTRQFIHQVHFSKAFIGIDGWQADTGFTGRDMMRSDVVNAVLEKGSEAIVLTDSSKFGCVHPYPLGPLSRFHRVITDSKISASDQMQLEHAGLLVNVIGSSV”, which “soluble on expression in E. coli” value is on record?
A: not soluble

Q: Which “soluble on expression in E. coli” value does the source give for “MGSDKIHHHHHHMSDSHQGSCLCGAVRFRTKGALRGVVYCHCSQCRKQSGHFYAATNVADADIVIEGTESITWYEASAFAGRGFCKTCGSVLFWKPRTQDYISVMAGAFDKPTGLKGDCHIFVGDKGDYYSIDDGLPQFEKSTPSIAVAE” here?
A: not soluble

Q: Which “soluble on expression in E. coli” value does the source give for “SINNGTFDEPIVNDQANNPDEWFIWQAGDYGISGARVSDYGVRDGYAYITIADPGTDTWHIQFNQWIGLYRGKTYTISFKAKADTPRPINVKILQNHDPWTNYFAQTVNLTADWQTFTFTYTHPDDADEVVQISFELGEGTATTIYFDDVTVSPQ” here?
A: soluble

Q: With “MSLKISVIIPIYNAENYIEKAFSSLKNQTLAQNEFEILCIDDKSTDNSLGKLKQLSKIHKNMRIINLHKNSGGPMIPRNKGIKEAKGKYIIFLDNDDYLGEEALERLFIQAEKNQSEVIFGKYVGINGRGVPQSQFKKGNRNEADILADNLVYTLAPHKMFQTAFLKTKKIYFDPNILIGEDQYFVMKAYVNAKVITVLADYDYYYVVSRGDENLSIKESKMDPREICKVVPAVVKEIEASPLHPTYKKTLIRAYIQRYFNDYITGNYNLDYKNMSERQKTFVQVMKDTIVCHLDEKMKNELPTKTRFMIDIIAENNPEKLIDVRMQMENFSKNQVVKVENGYIKGRFRKMRPQLAYDDVYDINHLNSSKVQLHSVTLQNNNYLLDISLEQSLLTRFQTALRLCLKERDGNLEIWISPLKMLSTERGIYAVDSTLFNHTCIWDLFIESEINGFKNRKRVGKDRDFEEIVSSNNTPLLIQNNSYQIKAYFTTPFSNLSFQIISEEGHHHHHH” as the sequence, how does the “soluble on expression in E. coli” value read?
A: soluble
